# According to US20170165335A1 (IMMATICS BIOTECHNOLOGIES, published 2017):
# Molecular target: T1, peptide-receptive MHC class I molecule (HLA-A*02:01 with beta-2-microglobulin) of the UV-ligand exchange assay (human)
# Test: UV-ligand exchange + anti-b2m ELISA; peptide exchange yield grade (++ = 20%-49%)
# Text: (§1) Candidate peptides for T cell based therapies according to the present invention were further tested for their MHC binding capacity (affinity). The individual peptide-MHC complexes were produced by UV-ligand exchange, where a UV-sensitive peptide is cleaved upon UV-irradiation, and exchanged with the peptide of interest as analyzed. Only peptide candidates that can effectively bind and stabilize the peptide-receptive MHC molecules prevent dissociation of the MHC complexes. To determine the yield of the exchange reaction, an ELISA was performed based on the detection of the light chain (β2m) of stabilized MHC complexes. The assay was performed as generally described in Rodenko et al. (Rodenko et al., 2006).
# (§2) 96 well MAXISorp plates (NUNC) were coated over night with 2 ug/ml streptavidin in PBS at room temperature, washed 4× and blocked for 1 h at 37° C. in 2% BSA containing blocking buffer. Refolded HLA-A*02:01/MLA-001 monomers served as standards, covering the range of 15-500 ng/ml. Peptide-MHC monomers of the UV-exchange reaction were diluted 100 fold in blocking buffer. Samples were incubated for 1 h at 37° C., washed four times, incubated with 2 ug/ml HRP conjugated anti-β2m for 1 h at 37° C., washed again and detected with TMB solution that is stopped with […]. Absorption was measured at 450 nm. Candidate peptides that show a high exchange yield (preferably higher than 50%, most preferred higher than 75%) are generally preferred for a generation and production of antibodies or fragments thereof, and/or T cell receptors or fragments thereof, as they show sufficient avidity to the MHC molecules and prevent dissociation of the MHC complexes.
row,Binder,peptide exchange yield
1,VVDEGPTGV (synthetic peptide),20 to 49%
2,TLLSNLEEA (synthetic peptide),20 to 49%
3,SLQEEHVAVA (synthetic peptide),20 to 49%
4,FLKSGDAAIV (synthetic peptide),20 to 49%
5,VMDSGDGVTHTV (synthetic peptide),20 to 49%
6,IVDDLTINL (synthetic peptide),20 to 49%
7,YLQGQRLDNV (synthetic peptide),20 to 49%
8,YLYDSETKNA (synthetic peptide),20 to 49%
9,VLLDKIKNLQV (synthetic peptide),20 to 49%
10,VLAKPGVISV (synthetic peptide),20 to 49%
11,ALTQTGGPHV (synthetic peptide),20 to 49%
12,SVDVSPPKV (synthetic peptide),20 to 49%
13,GLLKKINSV (synthetic peptide),20 to 49%
14,RMVEEIGVEL (synthetic peptide),20 to 49%
15,APVNVTTEVKSV (synthetic peptide),20 to 49%
16,GLLEELVTV (synthetic peptide),20 to 49%
17,FLFDGSANLV (synthetic peptide),20 to 49%
18,YLEEDVYQL (synthetic peptide),20 to 49%
19,FILDSAETTTL (synthetic peptide),20 to 49%
20,SLKEEVGEEAIV (synthetic peptide),20 to 49%
21,YLQGQRLDNVV (synthetic peptide),20 to 49%

row,Binder,peptide exchange yield
1,ALMLQGVDL (synthetic peptide),20 to 49%
2,TLDGAAVNQV (synthetic peptide),20 to 49%
3,LLAGQTYHV (synthetic peptide),20 to 49%
4,KLVDKSTEL (synthetic peptide),20 to 49%
5,VLLSEIEVA (synthetic peptide),20 to 49%
6,SLAAAAGKQEL (synthetic peptide),20 to 49%
7,VLISLKQAPLV (synthetic peptide),20 to 49%
8,FLVDGSSAL (synthetic peptide),20 to 49%
9,RLDQRVPQI (synthetic peptide),20 to 49%
10,SLLDDELMSL (synthetic peptide),20 to 49%
11,RLAGDGVGAV (synthetic peptide),20 to 49%
12,HLMDQPLSV (synthetic peptide),20 to 49%
13,SLANNVTSV (synthetic peptide),20 to 49%
14,TFAPVNVTTEVKSV (synthetic peptide),20 to 49%
15,FLAQQESEI (synthetic peptide),20 to 49%
16,SLDSRLELA (synthetic peptide),20 to 49%
17,SLKEEVGEEAI (synthetic peptide),20 to 49%
18,KLFNLSKEDDV (synthetic peptide),20 to 49%
19,AQQESEIAGI (synthetic peptide),20 to 49%
20,YLDAMMNEA (synthetic peptide),20 to 49%
21,SLSAFTLFL (synthetic peptide),20 to 49%

# Molecular target: T1, peptide-receptive MHC class I molecule …
# Test: UV-ligand exchange + anti-b2m ELISA; peptide exchange yield grade (++++ = >=75%)
# Text: as §1, §2
row,Binder,peptide exchange yield
1,KMDASLGNLFA (synthetic peptide),≥ 75%
2,MLMPVHFLL (synthetic peptide),≥ 75%
3,FLGKVVIDV (synthetic peptide),≥ 75%

# Molecular target: T1, peptide-receptive MHC class I molecule …
# Test: UV-ligand exchange + anti-b2m ELISA; peptide exchange yield grade (+ = <20%)
# Text: as §1, §2
row,Binder,peptide exchange yield
1,SLAAAAGKQELA (synthetic peptide),< 20%
2,SSFGGLGGGSV (synthetic peptide),< 20%
3,NLKGTFATL (synthetic peptide),< 20%

# Molecular target: T1, peptide-receptive MHC class I molecule …
# Test: UV-ligand exchange + anti-b2m ELISA; peptide exchange yield grade (+++ = 50%-75%)
# Text: as §1, §2
row,Binder,peptide exchange yield
1,ALLSGLREA (synthetic peptide),50 to 75%
2,FLVSNMLLAEA (synthetic peptide),50 to 75%
3,GLLDYATGAIGSV (synthetic peptide),50 to 75%
4,FLYKIIDEL (synthetic peptide),50 to 75%
5,ALLTFMEQV (synthetic peptide),50 to 75%
6,FLQEYLDAI (synthetic peptide),50 to 75%
7,FVSEIVDTV (synthetic peptide),50 to 75%
8,ALAAILTRL (synthetic peptide),50 to 75%
9,GLAAFKAFL (synthetic peptide),50 to 75%
10,NLVEKTPALV (synthetic peptide),50 to 75%
11,FLLDGSEGV (synthetic peptide),50 to 75%
12,KMFFLIDKV (synthetic peptide),50 to 75%
13,LLVDDSFLHTV (synthetic peptide),50 to 75%
